Experimental findings from PMC6759063 (Oncogene, 2008) are described below.

This experiment concerns the target cyclin D1 (human (endogenous in HK18), UniProt P24385 1-295). The experiment can be described thus: co-IP.

cyclin D1, sequence (P24385 whole entry): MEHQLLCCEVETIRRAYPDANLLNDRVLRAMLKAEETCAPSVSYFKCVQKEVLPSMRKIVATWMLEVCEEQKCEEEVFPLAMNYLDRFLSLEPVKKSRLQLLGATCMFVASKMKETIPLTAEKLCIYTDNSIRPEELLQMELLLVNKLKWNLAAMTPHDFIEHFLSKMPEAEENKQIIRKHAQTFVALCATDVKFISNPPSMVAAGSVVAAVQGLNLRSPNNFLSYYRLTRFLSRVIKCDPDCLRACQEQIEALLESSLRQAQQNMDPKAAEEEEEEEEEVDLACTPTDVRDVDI

B1: 14-3-3ζ (natural protein, human (endogenous in HK18), UniProt P63104 1-245, looked up)
chain: MDKNELVQKAKLAEQAERYDDMAACMKSVTEQGAELSNEERNLLSVAYKNVVGARRSSWRVVSSIEQKTEGAEKKQQMAREYREKIETELRDICNDVLSLLEKFLIPNASQAESKVFYLKMKGDYYRYLAEVAAGDDKKGIVDQSQQAYQEAFEISKKEMQPTHPIRLGLALNFSVFYYEILNSPEKACSLAKTAFDEAIAELDTLSEESYKDSTLIMQLLRDNLTLWTSDTQGDEAEAGEGGEN
For B1, the “fold decrease of the co-precipitated complex after LDIR (densitometry)” value is about 50 times.
